Reference: publication PMC4396695, “Structure of the Ribosomal Oxygenase OGFOD1 Provides Insights into the Regio- and Stereoselectivity of Prolyl Hydroxylases” (Structure(London, England:1993), 2015)

Target: the molecule itself
Assay: native gel or EMSA; non-denaturing PAGE of OGFOD1 and of Tpa1p, each run alone; conditions not given

B1: Tpa1p (termination and polyadenylation protein 1) (enzyme, S. cerevisiae, UniProt P40032 1-644, looked up)
chain: MKRKTAEVKGEKERNSKQISLEEDKIKGMFNPKIWDKTFQDGLKKEIEDSQPYNWGTIHELVNDDLLRAVRKEIETEIHFTKKETDIYRVNQSGDLANLSGLDWDDLSRLPNLFKLRQILYSKQYRDFFGYVTKAGKLSGSKTDMSINTYTKGCHLLTHDDVIGSRRISFILYLPDPDRKWKSHYGGGLRLFPSILPNVPHSDPSAKLVPQFNQIAFFKVLPGFSFHDVEEVKVDKHRLSIQGWYHIPQVGEEGYIPGEEEAWVRNNTSTLAQIESNVLEDFEFPKDERNILSFHEVKHFEKMLKGDAGAKTDNTPKESMTSVISDSVKLSEAEFTYLSQYISPEHLSSKGIEKLQKQFVENSSLQIESFLNDDKSELLKKVIKQKELEQECPYHSKDVKAPWKTAIPPHKARYLYIDGKEYRNFQTEADILEALNNNDLPNFQFTKDAIKIISDASGNSRENNFDAELALIDLAVFHKSTIFKKYLALLTSLCPVSEQILIRRFRPGMDFTLATKCRFNELLKSNPDIIDAVLEGTLCLTPSAGWESGELGGYELYMMDDDEDNKQYLKEDVEDASVYRADDSGDSVLINDPPAWNTFNLVLRDESVLEFVKYVSWSAKSSRWDVKMKWDVKSCDEDGQEDEA
notes: Tpa1p, Saccharomyces cerevisiae, full length, 644 aa, 74 kDa; plasmid pNIC28_Tpa1p; source: E. coli BL21(DE3), purified (HisTrap, Superdex 200, MonoQ)
stoichiometry N: 2
